Common to all, as to details: both partners purified
The target of experiment [1] is T1, NorC WT (Staphylococcus aureus subsp. aureus COL …).
T1 construct: also called NorC wild-type; source: E. coli C41(DE3), extracted from membranes in DDM, purified (Ni-NTA, SEC in DM)
T1 chain: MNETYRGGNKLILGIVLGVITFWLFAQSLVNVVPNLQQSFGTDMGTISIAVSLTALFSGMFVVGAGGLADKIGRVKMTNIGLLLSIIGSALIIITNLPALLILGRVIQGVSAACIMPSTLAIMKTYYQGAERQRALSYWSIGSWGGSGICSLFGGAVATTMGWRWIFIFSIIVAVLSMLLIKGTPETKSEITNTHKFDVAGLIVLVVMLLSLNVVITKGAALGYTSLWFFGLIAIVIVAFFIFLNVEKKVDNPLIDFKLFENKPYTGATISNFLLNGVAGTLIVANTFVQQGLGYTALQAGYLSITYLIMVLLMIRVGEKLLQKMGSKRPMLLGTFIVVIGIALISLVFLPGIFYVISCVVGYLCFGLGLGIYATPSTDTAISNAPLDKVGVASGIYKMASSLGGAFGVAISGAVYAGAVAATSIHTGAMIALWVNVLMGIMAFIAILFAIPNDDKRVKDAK
The experiment can be described thus: ITC; ICab (200 uM, syringe) titrated into NorC WT (20 uM, cell) with 1 mM TPP in both cell and syringe; 25 °C; 20 mM HEPES pH 7.0, 200 mM NaCl, 4 mM n-decyl-beta-D-maltopyranoside; 16 injections of 2.5 ul; one set of sites model.

Experiment [2] deals with T1, NorC WT. Description: ITC; ICab (200 uM, syringe) titrated into NorC WT (20 uM, cell); 25 °C; 20 mM HEPES pH 7.0, 200 mM NaCl, 4 mM n-decyl-beta-D-maltopyranoside; one set of sites model.
In experiment [3] the target is T2, NorC WT (wild-type) (Staphylococcus aureus subsp. aureus COL …).
T2 construct: not shown: His8, C-terminal, kept
T2 chain: T1 chain
Description: ITC; as without TPP+, but in the presence of 1 mM TPP+; 16 injections of 2.5 ul; 25 °C; 20 mM HEPES pH 7.0, 200 mM NaCl, 4 mM DM.

Experiment [4] has as its target T2, NorC WT (wild-type). The experiment can be described thus: MST; 10 nM transporter labelled with red Tris-NTA dye, ICab titrated from 5 uM in twofold dilutions; Monolith NT.115 premium-coated capillaries; single-site binding model.
Experiment [5] concerns the target T3, NorC WT (wild-type) (Staphylococcus aureus subsp. aureus COL …).
T3 chain: T1 chain
The experiment can be described thus: ITC; ICab (200 uM) in the syringe titrated into NorC WT (20 uM) in the cell; 25 °C; 20 mM HEPES pH 7.0, 200 mM NaCl, 4 mM n-decyl-beta-D-maltopyranoside; one set of sites model.

The target in experiment [6] is T3, NorC WT (wild-type). The experiment can be described thus: ITC; ICab (200 uM) in the syringe titrated into NorC WT (20 uM) in the cell, with 1 mM TPP in both cell and syringe; 25 °C; 20 mM HEPES pH 7.0, 200 mM NaCl, 4 mM n-decyl-beta-D-maltopyranoside; 16 injections of 2.5 ul; one set of sites model.

B1: single-domain Indian camelid antibody (ICab) (VHH)
VHH: QVQLEESGGGSVQAGGSLRLSCAASGYMYSTYSTYCMGWFRQAPGKEREGVAFIKRGDHSTYYTDSVKGRFTISQDSAKNTVSLQMNNLKPEDTAIYYCAADFAHSFLLSVHSGAGQYSYWGQGTQVTVSS
For the molecule B1, the “stoichiometry N” value in the experiment with NorC WT [1] amounted to 1.14 ± 0.012. In addition, in the experiment with NorC WT [2], the affinity, expressed as Kd, was 46.6 ± 8.9 nM and the “stoichiometry N” value came out at 1.04 ± 0.005.

B2: Zn2+-bound single-domain Indian camelid antibody (ICab) (VHH)
VHH: B1 VHH
notes: also called single-domain camelid antibody; vhh
For the molecule B2, the Kd in the experiment with NorC WT (wild-type) [3] amounted to 35.6 ± 16 nM; with NorC WT (wild-type) [4], 37.5 ± 16 nM.

B3: single-domain Indian camelid antibody (ICab) (VHH)
VHH: B1 VHH
notes: also called single-domain camelid antibody
In the case of B3, in the experiment with NorC WT (wild-type) [5], the Kd turned out to be 46.6 nM and the “stoichiometry N” value stood at 1.04. Moreover, in the experiment with NorC WT (wild-type) [6], the “stoichiometry N” value came out at 1.14.

For the origin of these results see publication PMC8257674, “Structural basis of inhibition of a transporter from Staphylococcus aureus, NorC, through a single-domain camelid antibody” (Communications Biology, 2021).
